Our source for the Kd values is article PMC5543128.

Usually Kd stands for a measure of binding affinity in units of concentration. A lower Kd goes with higher affinity.

Sequences and labels used below:
B1: 5'-biotin B4 (ssDNA)
DNA: GCCTGTTGTGAGCCTCCTGTCGAATACGCACATACTGTGTACCTTGAATTTATATTGAGCGTTTATTCTTGTCTCCC
B2: A5 (ssDNA)
DNA: GCCTGTTGTGAGCCTCCTGTCGAAGTGCAGGTCTATACAGGACAGTCTTCTGATTTGAGCGTTTATTCTTGTCTCCC
B3: A4 (ssDNA)
DNA: GCCTGTTGTGAGCCTCCTGTCGAAAATGCTGTTGTTTGAGTATCAATCAGACCGTTGAGCGTTTATTCTTGTCTCCC
B4: D3 (ssDNA)
DNA: GCCTGTTGTGAGCCTCCTGTCGAAATCGGTCGTATAGGGTCGATTTGGTCGGCATTGAGCGTTTATTCTTGTCTCCC
B5: B4 (ssDNA)
DNA: B1 DNA
B6: D7 (ssDNA)
DNA: GCCTGTTGTGAGCCTCCTGTCGAATGCAGCATGGGGGATGTGCTCTTCCGCGTGTTGAGCGTTTATTCTTGTCTCCC

The target in the first series is αC-conotoxin PrXA (Conus parius, UniProt P0C8S5 52-83). Nature of the series: SPR. The settings on record: tags: none; label: 5' biotin.
Chain of αC-conotoxin PrXA (P0C8S5 52-83): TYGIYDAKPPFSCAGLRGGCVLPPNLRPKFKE
Regarding B1, the Kd is 329 nM.

In a further series the target is FAM-αC-conotoxin PrXA (Conus parius, UniProt P0C8S5 52-83). Nature of the series: fluorescence anisotropy. To be noted: tags: 5,6-carboxyfluorescein (FAM). Background: Polarisation of emitted light reports the rotation of a fluorescent probe.
Chain of FAM-αC-conotoxin PrXA (P0C8S5 52-83): as above
On to B2, for which binding was characterised by a dissociation constant (Kd) of 184 ± 69.7 nM.
The molecule B3 gave a Kd of 246 ± 66.6 nM.
For the molecule B4, the Kd came to 122 ± 25.3 nM.
As to B5, the Kd stood at 120 ± 21.3 nM.
Molecule B6 showed a Kd of 238 ± 30.6 nM.
